Source: US20220195058A1 (Regeneron, published 2022)

B1: REGN9035 (antibody, human IgG4 S228P, kappa)
heavy: QVQLVESGGGVVQPGRSLRLSCAASGFTFSSYGMHWVRQAPGKGLEWVALIWFDGGYKYYADSVKGRFTISRDNSKNTLYLQMNSLRADDTAVYYCARGSAAAGHVPFDYWGQGILVTVSSASTKGPSVFPLAPCSRSTSESTAALGCLVKDYFPEPVTVSWNSGALTSGVHTFPAVLQSSGLYSLSSVVTVPSSSLGTKTYTCNVDHKPSNTKVDKRVESKYGPPCPPCPAPEFLGGPSVFLFPPKPKDTLMISRTPEVTCVVVDVSQEDPEVQFNWYVDGVEVHNAKTKPREEQFNSTYRVVSVLTVLHQDWLNGKEYKCKVSNKGLPSSIEKTISKAKGQPREPQVYTLPPSQEEMTKNQVSLTCLVKGFYPSDIAVEWESNGQPENNYKTTPPVLDSDGSFFLYSRLTVDKSRWQEGNVFSCSVMHEALHNRFTQKSLSLSPGK
chain: not shown
light: not shown
notes: Monovalent (one-armed) human IgG4: one full heavy chain, one light chain and one truncated heavy chain (Fc); also called one-armed anti-R5381 antibody; monovalent anti-R5381 mAb
B2: REGN9037 (antibody, human IgG4 S228P, kappa)
heavy: QVQLQESGPGLVKPSETLSLTCTVSGASISTYYWSWIRQPPGKGLEWIGYIYYSGTTNYNPSLKSRVTISVDTSKNQFSLKLSSVTAADTAVYYCARDRGGYDGEWGQGTLVTVSSASTKGPSVFPLAPCSRSTSESTAALGCLVKDYFPEPVTVSWNSGALTSGVHTFPAVLQSSGLYSLSSVVTVPSSSLGTKTYTCNVDHKPSNTKVDKRVESKYGPPCPPCPAPEFLGGPSVFLFPPKPKDTLMISRTPEVTCVVVDVSQEDPEVQFNWYVDGVEVHNAKTKPREEQFNSTYRVVSVLTVLHQDWLNGKEYKCKVSNKGLPSSIEKTISKAKGQPREPQVYTLPPSQEEMTKNQVSLTCLVKGFYPSDIAVEWESNGQPENNYKTTPPVLDSDGSFFLYSRLTVDKSRWQEGNVFSCSVMHEALHNRFTQKSLSLSPGK
chain: not shown
light: not shown
notes: as for B1
B3: REGN6581 (antibody, human IgG4 S228P, kappa, V domains shown)
VH: QVQLQESGPGLVKPSETLSLTCTVSGASISTYYWSWIRQPPGKGLEWIGYIYYSGTTNYNPSLKSRVTISVDTSKNQFSLKLSSVTAADTAVYYCARDRGGYDGEWGQGTLVTVSS
VL: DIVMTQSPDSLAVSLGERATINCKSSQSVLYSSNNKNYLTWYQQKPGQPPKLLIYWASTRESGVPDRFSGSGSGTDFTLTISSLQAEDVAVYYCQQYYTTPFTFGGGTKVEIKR
notes: Bivalent human IgG4; also called bivalent anti-R5381 mAb; anti-idiotype antibody
B4: REGN6580 (antibody, human IgG4 S228P, kappa, V domains shown)
VH: QVQLVESGGGVVQPGRSLRLSCAASGFTFSSYGMHWVRQAPGKGLEWVALIWFDGGYKYYADSVKGRFTISRDNSKNTLYLQMNSLRADDTAVYYCARGSAAAGHVPFDYWGQGILVTVSS
VL: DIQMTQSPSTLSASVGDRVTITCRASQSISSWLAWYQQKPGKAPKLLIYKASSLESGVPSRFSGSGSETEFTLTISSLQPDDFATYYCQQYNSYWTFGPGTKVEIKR
notes: as for B3

What follows are binders tested against T1, H2aM22033N (assay: SPR Biacore 4000, H2aM22033N captured via anti-mouse Fc, 37 C, association pH 7.4, dissociation pH 6.5).
T1 construct: also called parental hybridoma of R5381
Method: (§1) All binding studies were performed at 37° C. using four running buffers, (i) PBS, 0.05% v/v Surfactant Tween-20, pH 7.4 (PBS-T-pH 7.4), (ii) PBS, 0.05% v/v Surfactant Tween-20, pH 6.5 (PBS-T-pH 6.5), (iii) PBS, 0.05% v/v Surfactant Tween-20, pH 6.0 (PBS-T-pH 6.0), and (iv) PBS, 0.05% v/v Surfactant Tween-20, pH 5.0 (PBS-T-pH 5.0).
(§2) The dissociation rate constants (kd) in four pH running buffers were determined by fitting the real-time binding sensorgrams to a 1:1 binding model using Scrubber 2.0c curve-fitting software. The dissociative half-life (t½) was calculated from the kd values as:
With B1 the koff was 0.00142 s⁻¹ and the t1/2 was 8 min.
Binder B2 has a koff of 0.000792 s⁻¹ and a t1/2 of 15 min.

These binders were tested against R5381 (assay: cell-based or functional assay).
In the case of B3, the “C1q-CIC assay Final Value; 100 nM antibody + 100 nM antigen; Result Neg” value is reported as 0.65 ug Eq/mL and the “C1q-CIC assay Final Value; 1 uM antibody + 100 nM antigen; Result Neg” value is reported as 0.53 ug Eq/mL.
In the case of B2, the “C1q-CIC assay Final Value; 100 nM antibody + 100 nM antigen; Result Neg” value is reported as 0.64 ug Eq/mL and the “C1q-CIC assay Final Value; 1 uM antibody + 100 nM antigen; Result Neg” value is reported as 0.42 ug Eq/mL.

The binders below were run against REGN1945 (assay: cell-based or functional assay).
B3 was tested, and the “C1q-CIC assay Final Value; 100 nM antibody + 100 nM antigen; Result Neg” value was 0.35 ug Eq/mL and the “C1q-CIC assay Final Value; 1 uM antibody + 100 nM antigen; Result Neg” value was 0.3 ug Eq/mL.
B2 was tested, and the “C1q-CIC assay Final Value; 100 nM antibody + 100 nM antigen; Result Neg” value was 0.37 ug Eq/mL and the “C1q-CIC assay Final Value; 1 uM antibody + 100 nM antigen; Result Neg” value was 0.55 ug Eq/mL.

What follows are binders tested against T1, H2aM22033N (assay: SPR Biacore T200, H2aM22033N captured via anti-mouse Fc, analyte injected, 25 C, pH 7.4).
Method: (§3) All binding studies were performed in 10 mM HEPES, 150 mM NaCl, 3 mM EDTA, and 0.05% v/v Surfactant Tween-20, pH 7.4 (HBS-ET) running buffer at 25° C. and 37° C. The Biacore CM5 sensor chip surface was first derivatized by amine coupling with anti-mouse Fc specific antibody (GE Healthcare, # BR100838) to capture H2aM22033N. […] The dissociation of different mAbs bound to H2aM22033N was monitored for 10 minutes in HBS-ET running buffer. At the end of each cycle, the H2aM22033N capture surface was regenerated using a 60 sec injection of 10 mM Glycine-HCl, pH 1.5. The association rate (kₐ) and dissociation rate (kd) were determined by fitting the real-time binding sensorgrams to a 1:1 binding model with mass transport limitation using Scrubber 2.0c curve-fitting software. Binding dissociation equilibrium constant (KD) and dissociative half-life (t½) were calculated from the kinetic rates as:
In the case of B4, the “100 nM Ag Bound (RU)” value is reported as 110 RU, the Kd is reported as 0.528 nM and the koff is reported as 9.42e-05 s⁻¹. It also gave a kon of 178000 M⁻¹ s⁻¹ and a t1/2 of 123 min.
With B1 the “100 nM Ag Bound (RU)” value was 47 RU, the Kd was 1.76 nM and the koff was 0.000132 s⁻¹. It also gave a kon of 75100 M⁻¹ s⁻¹ and a t1/2 of 87 min.
For B3, the “100 nM Ag Bound (RU)” value was 65 RU, the Kd was 0.561 nM and the koff was 7.11e-05 s⁻¹. The kon was 127000 M⁻¹ s⁻¹ and the t1/2 was 163 min.
For B2, the “100 nM Ag Bound (RU)” value was 31 RU, the Kd was 1.52 nM and the koff was 9.89e-05 s⁻¹. The kon was 65100 M⁻¹ s⁻¹ and the t1/2 was 117 min.

The binders below were run against T1, H2aM22033N (assay: SPR Biacore 4000, H2aM22033N captured via anti-mouse Fc, 37 C, association pH 7.4, dissociation pH 7.4).
Method: as §1, §2
With B1 the koff was 0.000996 s⁻¹ and the t1/2 was 12 min.
With B2 the koff was 0.000867 s⁻¹ and the t1/2 was 13 min.

What follows are binders tested against T1, H2aM22033N (assay: SPR Biacore 4000, H2aM22033N captured via anti-mouse Fc, 37 C, association pH 7.4, dissociation pH 5.0).
Method: as §1, §2
For B1, the koff was 0.0197 s⁻¹ and the t1/2 was 0.6 min.
B2 showed a koff of 0.000664 s⁻¹ and a t1/2 of 17 min.

The binders below were run against T1, H2aM22033N (assay: SPR Biacore 4000, H2aM22033N captured via anti-mouse Fc, 37 C, association pH 7.4, dissociation pH 6.0).
Method: as §1, §2
Binder B1 has a koff of 0.00294 s⁻¹ and a t1/2 of 3.9 min.
B2 showed a koff of 0.000811 s⁻¹ and a t1/2 of 14 min.

Molecular target: R5381
Assay: cell-based or functional assay
Remark: another data set of the same source
B4 was tested, and the “C1q-CIC assay Final Value; 100 nM antibody + 100 nM antigen; Result Neg” value was 0.22 ug Eq/mL and the “C1q-CIC assay Final Value; 1 uM antibody + 100 nM antigen; Result Neg” value was 0.2 ug Eq/mL.
With B1 the “C1q-CIC assay Final Value; 100 nM antibody + 100 nM antigen; Result Neg” value was 0.18 ug Eq/mL and the “C1q-CIC assay Final Value; 1 uM antibody + 100 nM antigen; Result Neg” value was 0.29 ug Eq/mL.

Molecular target: REGN1945
Assay: cell-based or functional assay
Remark: another data set of the same source
B4 was tested, and the “C1q-CIC assay Final Value; 100 nM antibody + 100 nM antigen; Result Neg” value was 0.11 ug Eq/mL and the “C1q-CIC assay Final Value; 1 uM antibody + 100 nM antigen; Result Neg” value was 0.16 ug Eq/mL.
B1 was tested, and the “C1q-CIC assay Final Value; 100 nM antibody + 100 nM antigen; Result Neg” value was 0.15 ug Eq/mL and the “C1q-CIC assay Final Value; 1 uM antibody + 100 nM antigen; Result Neg” value was 0.2 ug Eq/mL.

Each binder was assayed against T1, H2aM22033N (assay: SPR Biacore T200, H2aM22033N captured via anti-mouse Fc, analyte injected, 37 C, pH 7.4).
Method: as §3
In the case of B4, the “100 nM Ag Bound (RU)” value is reported as 160 RU, the Kd is reported as 0.914 nM and the koff is reported as 0.000424 s⁻¹. The kon was 464000 M⁻¹ s⁻¹ and the t1/2 was 27 min.
B1 was tested, and the “100 nM Ag Bound (RU)” value was 81 RU, the Kd was 5.78 nM and the koff was 0.00086 s⁻¹. The kon was 149000 M⁻¹ s⁻¹ and the t1/2 was 13 min.
For B3, the “100 nM Ag Bound (RU)” value was 104 RU, the Kd was 1.16 nM and the koff was 0.000367 s⁻¹. The kon was 317000 M⁻¹ s⁻¹ and the t1/2 was 31 min.
With B2 the “100 nM Ag Bound (RU)” value was 55 RU, the Kd was 6.71 nM and the koff was 0.000738 s⁻¹. For the same binder, the kon was 110000 M⁻¹ s⁻¹ and the t1/2 was 16 min.

These binders were tested against T2, R5381 (assay: blocking ELISA: antibody pre-bound to 95 pM Biotin-R5381, binding to coated hNPR1.ecto.mmh read).
T2 construct: Fully human agonist anti-NPR1 monoclonal antibody; also called REGN5381; anti-NPR1 antibody
Method: After 1 hour, incubation at RT, the pre-bind reaction mix was transferred to microtiter plates coated with hNPR1.ecto.mmh. The microtiter plates were incubated at RT for 1 hour and then washed with plate washing solution. […] The plates were incubated with detection protein for 1 hour at RT and then washed with plate washing solution. The assay plates were developed with TMB colorimetric substrates according to the manufacturer's recommended procedure.
The absorbance at 450 nm for each well was recorded and plotted as the function of the concentration of antibody. Data was analyzed in GraphPad Prism software using a four-parameter logistic equation over an 11-point dose response curve and IC₅₀ values were calculated.
For B4, the “% Blocking with 333.33 nM antibody” value was 100% and the IC50 was 0.381 nM.
B1 was tested, and the “% Blocking with 333.33 nM antibody” value was 99.3% and the IC50 was 2.04 nM.
B3 was tested, and the “% Blocking with 333.33 nM antibody” value was 100% and the IC50 was 0.543 nM.
B2 was tested, and the “% Blocking with 333.33 nM antibody” value was 99% and the IC50 was 2.4 nM.

Each binder was assayed against T2, R5381 (assay: cell-based or functional assay).
For B4, the “IC50 of inhibition of 70 nM R5381-induced cGMP, 40 pM ANP” value (“IC50 of inhibition … 40 pM ANP” below) was 2.23e-08 M, the “IC50 of inhibition of 70 nM R5381-induced cGMP, 80 pM BNP” value (“IC50 of inhibition … 80 pM BNP” below) was 3.32e-08 M and the “IC50 of inhibition of 70 nM R5381-induced cGMP, no ligand” value (“IC50 of inhibition … no ligand” below) was 15.5 nM. The “Max Inh. (%) of 70 nM R5381-induced cGMP, 40 pM ANP” value (“Max Inh. (%) … 40 pM ANP” below) was 102%, the “Max Inh. (%) of 70 nM R5381-induced cGMP, 80 pM BNP” value (from here on “Max Inh. (%) … 80 pM BNP”) was 99% and the “Max Inh. (%) of 70 nM R5381-induced cGMP, no ligand” value (shortened to “Max Inh. (%) … no ligand”) was 99%.
With B1 the “IC50 of inhibition … 40 pM ANP” value was 2.66e-08 M, the “IC50 of inhibition … 80 pM BNP” value was 4.13e-08 M and the “IC50 of inhibition … no ligand” value was 46 nM. The “Max Inh. (%) … 40 pM ANP” value was 104%, the “Max Inh. (%) … 80 pM BNP” value was 97% and the “Max Inh. (%) … no ligand” value was 100%.
B3 was tested, and the “IC50 of inhibition … 40 pM ANP” value was 2.06e-08 M, the “IC50 of inhibition … 80 pM BNP” value was 3.5e-08 M and the “IC50 of inhibition … no ligand” value was 18 nM. For the same binder, the “Max Inh. (%) … 40 pM ANP” value was 104%, the “Max Inh. (%) … 80 pM BNP” value was 99% and the “Max Inh. (%) … no ligand” value was 100%.
For B2, the “IC50 of inhibition … 40 pM ANP” value was 1.76e-08 M, the “IC50 of inhibition … 80 pM BNP” value was 3.81e-08 M and the “IC50 of inhibition … no ligand” value was 36.3 nM. The “Max Inh. (%) … 40 pM ANP” value was 101%, the “Max Inh. (%) … 80 pM BNP” value was 97% and the “Max Inh. (%) … no ligand” value was 99%.
